T1: human BMPRII protein (Sino Biological, #10551-H08H) (human, UniProt Q13873 27-150)
T1 sequence (looked up): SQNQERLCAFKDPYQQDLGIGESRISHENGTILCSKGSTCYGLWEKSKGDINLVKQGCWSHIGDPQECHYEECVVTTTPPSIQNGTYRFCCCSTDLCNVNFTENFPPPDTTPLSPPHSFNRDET

B1: DGL626 (bispecific antibody)
chain 1: not shown
chain 2: EVQLLESGGGLVQPGGSLRLSCAASGFTFSDYYMTWIRQAPGKGLEWVSSISGGSTYYADSRKGRFTISRDNSENTLYLQMNSLRAEDTAVYYCARDFGVAGWFGQYGMDVWGQGTLVTVSSGGGGSGGGGSGGGGSQSVLTQPPSASGTPGQRVTISCTGSSSNIGAGYDVHWYQQLPGTAPKLLIYRSNQRPSGVPDRFSGSKSGTSASLAISGLRSEDEADYYCSSYAGNYNLVFGGGTKLTVLDKTHTCPPCPAPEAAGAPSVFLFPPKPKDTLMISRTPEVTCVVVDVSHEDPEVKFNWYVDGVEVHNAKTKPREEQYNSTYRVVSVLTVLHQDWLNGKEYKCKVSNKALPAPIEKTISKAKGQPREPQVCTLPPSRDELTKNQVSLSCAVKGFYPSDIAVEWESNGQPENNYKTTPPVLDSDGSFFLVSKLTVDKSRWQQGNVFSCSVMHEALHNHYTQKSLSLSPGWSHPQFEK
B2: DGL628 (bispecific antibody)
chain 1: not shown
chain 2: B1 chain 2
B3: DGL629 (bispecific antibody)
chain 1: not shown
chain 2: B1 chain 2
B4: DGL633 (bispecific antibody)
chain 1: not shown
chain 2: EVQLLESGGGLVQPGGSLRLSCAASGFTFSNAWMNWVRQAPGKGLEWVSSISSSSSYIYYADSVKGRFTISRDNSKNTLYLQMNSLRAEDTAVYYCARAVAAGGMFWGLDQWGQGTLVTVTSSGGGGSGGGGSGGGGSQSVLTQPPSASGTPGQRVTISCSGSRSNIGSNSVHWYQQLPGTAPKLLIYGNSNRPSGVPDRFSGSKSGTSASLAISGLRSEDEADYYCQSYDSSLNDHVVFGGGTKLTVLDKTHTCPPCPAPEAAGAPSVFLFPPKPKDTLMISRTPEVTCVVVDVSHEDPEVKFNWYVDGVEVHNAKTKPREEQYNSTYRVVSVLTVLHQDWLNGKEYKCKVSNKALPAPIEKTISKAKGQPREPQVCTLPPSRDELTKNQVSLSCAVKGFYPSDIAVEWESNGQPENNYKTTPPVLDSDGSFFLVSKLTVDKSRWQQGNVFSCSVMHEALHNHYTQKSLSLSPGWSHPQFEK
B5: DGL635 (bispecific antibody)
chain 1: B1 chain 2
chain 2: not shown

target: ALK-1/BMPR-2 receptor pair of the PathHunter U2Os dimerization cells (DiscoverX 93-0962C3) (UniProt P37023 22-503; Q13873 27-1038); assay: cell-based or functional assay
Sequence (P37023 22-503, one chain of several): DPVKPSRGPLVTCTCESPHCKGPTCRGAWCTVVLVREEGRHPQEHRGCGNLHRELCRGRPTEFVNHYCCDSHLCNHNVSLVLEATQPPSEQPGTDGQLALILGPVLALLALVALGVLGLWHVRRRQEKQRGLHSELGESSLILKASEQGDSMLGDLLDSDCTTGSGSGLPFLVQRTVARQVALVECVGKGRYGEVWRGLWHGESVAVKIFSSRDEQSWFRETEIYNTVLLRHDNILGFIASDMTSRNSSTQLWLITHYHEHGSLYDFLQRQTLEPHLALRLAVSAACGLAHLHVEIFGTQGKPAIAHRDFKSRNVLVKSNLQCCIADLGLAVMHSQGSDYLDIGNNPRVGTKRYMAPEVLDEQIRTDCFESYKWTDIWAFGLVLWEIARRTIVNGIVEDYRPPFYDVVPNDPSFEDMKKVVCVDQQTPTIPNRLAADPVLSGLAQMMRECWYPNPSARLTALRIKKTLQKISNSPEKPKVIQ

| Binder | % Emax BMP9 | Emax (RLU) |
| --- | --- | --- |
| B1 | 7% | 258000 RLU |
| B2 | 24% | 884000 RLU |
| B3 | 12% | 424000 RLU |
| B4 | 32% | 586000 RLU |
| B5 | 141% | 2.61e+06 RLU |

target: human ALK1 protein (Sino Biological, #10066-H08H) (human, UniProt P37023 22-118); assay: ELISA, coated human ALK1
Sequence (P37023 22-118 limits assumed): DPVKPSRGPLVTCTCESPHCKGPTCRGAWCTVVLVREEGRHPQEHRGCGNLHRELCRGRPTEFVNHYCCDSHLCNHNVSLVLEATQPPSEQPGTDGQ
Procedure: (§1) These binders were then tested using an ELISA assay. High binding plates (Corning, 9018) were coated with either 2 μg/ml of human BMPRII protein (Sino Biological, #10551-H08H) or 2 μg/ml of human ALK1 protein (Sino Biological, #10066-H08H) overnight at 4C. The plates were then washed three times with wash buffer (R&D Systems, WA126). […] The plates were then washed three times with wash buffer and DGL antibodies or controls, which were diluted with PBS and 0.1% BSA. The antibodies were incubated for one hour at room temperature and then the plates were washed three times with wash buffer. The plates were then incubated with mouse anti-human IgG Fc secondary—HRP (diluted with PBS/0.1% BSA); 100 ul per well at 2 μg/ml and incubated at room temperature for one hour. The plate was washed three times in wash buffer and then 100 ul TMB (R&D Systems, DY9998B, substrate reagent pack). After the wells turn blue, 50 ul of stop solution (R&D Systems, DY994) was added to each well and the absorbance of the plate was read at 450 nm. results can be found in Table 8.

| Binder | Abs450 1 nM | Abs450 10 nM | Abs450 100 nM |
| --- | --- | --- | --- |
| B1 | 0.06 | 0.07 | 0.06 |
| B2 | 0.05 | 0.12 | 0.52 |
| B3 | 0.08 | 0.08 | 0.08 |
| B4 | 0.15 | 0.78 | 1.42 |
| B5 | 0.09 | 0.29 | 1.17 |

target: T1, human BMPRII protein (Sino Biological, …); assay: ELISA, coated human BMPRII
Procedure: as §1

| Binder | Abs450 1 nM | Abs450 10 nM | Abs450 100 nM |
| --- | --- | --- | --- |
| B1 | 0.17 | 0.25 | 0.71 |
| B2 | 0.17 | 0.27 | 0.8 |
| B3 | 0.18 | 0.29 | 0.9 |
| B4 | 0.12 | 0.14 | 0.37 |
| B5 | 0.15 | 0.33 | 1.17 |
